Test results reported in patent US20060241031A1 (priority 2003, published 2006).
Like-named read-outs stand apart in the source and are kept apart here.

Tests used:
LL-37 [1] = molecular target: T1, LL-37 (Homo sapiens, UniProt P49913); assay: Antimicrobial assay, inhibition of bactericidal effect of LL-37; type: cell-based
T1 construct: LL-37, […]; (Mw 4492) was synthesized by Innovagen AB; purchased Innovagen AB, Lund, Sweden; host or cells: chemical synthesis
T1 sequence (P49913 134-170 limits assumed): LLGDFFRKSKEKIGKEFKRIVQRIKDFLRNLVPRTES
Method: (§1) Antimicrobial assay—AP1 bacteria were grown to mid-log phase in TH broth, washed and diluted in 10 mM Tris-HCl, pH 7.5, containing 5 mM glucose. 50 μl bacteria (2×10^6 colony forming units (cfu)/ml) were incubated together with α-defensin or LL-37 at various concentrations for 2 h at 37° C. In subsequent experiments, bacteria were incubated with α-defensin and LL-37 at a concentration of 448 nM together with different concentrations of protein SIC or M1 protein and the reactions were carried out for 2 h (α-defensin) or 1 h (LL-37). To quantitate the bactericidal activity serial dilutions of the incubation mixtures were plated on TH agar, incubated overnight at 37° C., and the number of cfus were determined.

α-defensin = molecular target: T2, α-defensin (Homo sapiens, UniProt P59665); assay: Antimicrobial assay, inhibition of bactericidal effect of α-defensin; type: cell-based
T2 construct: α-defensin (HNP-1), […]; (Mw 3442) was purchased from Sigma; purchased Sigma
T2 sequence (P59665 65-94 limits assumed): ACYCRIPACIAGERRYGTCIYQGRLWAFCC
Method: as §1

LL-37 [2] = molecular target: T1, LL-37; assay: Indirect ELISA, SIC homologues coated, binding of LL-37; conditions: purified SIC homologues on microtiter plates; M1 protein negative control
AP1 bacteria [3] = system: AP1 bacteria
Method: as §1

AP1 bacteria [4] = system: AP1 bacteria; remark: listed apart in the source
Method: Bacterial growth assay—AP1 bacteria were grown to stationary phase in TH broth. 200 μl of TH was inoculated with 5 μl of the bacterial suspension in 96-well plates (Falcon) at 37° C. At early logarithmic phase various amounts of LL-37 was added and growth was followed by measuring the absorbance at 490 nm (using a BioRad 550 microplate reader). The amount of protein SIC in the growth medium was estimated by ELISA (see below).

M1 protein = assay: Indirect ELISA, binding of antibacterial peptides to coated M1 protein (control); set-up: species or system S. pyogenes; conditions: M1 protein applied to plastic wells as control
protein SIC [5] = conditions: peptides on Immobilon filters probed with 125I-labelled SIC from M1 strain AP1
Method: Slot-binding and SDS-polyacrylamide gel electrophoresis—Peptides were applied to polyvinylidene difluoride (PVDF) membranes (Immobilon, Millipore) using a Milliblot-D system (Millipore). Membranes were blocked in TBS (0.05 M Tris-HCl, pH 7.5, 0.15 M NaCl) containing 3% bovine serum albumin (SA), incubated with ^125I-labelled protein SIC for 3 h, and washed with TBS containing 0.05% Tween-20. Autoradiography was carried out using Kodak x-Omat AR films and regular intesifying screens.

protein SIC [6] = conditions: SIC applied to plastic wells, peptide added, detected with antibodies
LL-37 (human) = assay: cell-based or functional assay

For “SIC: streptococcal inhibitor of complement, purified from S. pyogenes strain AP1 of serotype M1”, the “blocking of antibacterial activity of LL-37” value (LL-37 [1]; LL-37 0.448 μM, AP1 bacteria, M1 protein at a maximum of 0.72 μM) was “blocks”, the “efficiency in blocking LL-37 relative to α-defensin” value (LL-37 [1]; from inhibition curves, FIG. 2 right panel) was “about ten” and the “potency in blocking α-defensin and LL-37 relative to the M12 and M55 homologues” value (α-defensin; from inhibition curves FIG. 3C, both peptides at 448 nM) was 5-10 times. For the same substance, the “blocking of antibacterial activity of α-defensin” value (α-defensin; α-defensin 0.448 μM, AP1 bacteria, 2 h, M1 protein at a maximum of 0.72 μM) was “blocks” and the “binding of LL-37 (ELISA, FIG. 3B)” value (LL-37 [2]) was “showed binding of LL-37 clearly above M1 protein”.
With “human antibacterial peptide LLGDFFRKSKEKIGKEFKRIVQRIKDFLRNLVPRTES (Mw 4492), synthesized by Innovagen AB [LL-37]” the “concentration required for 100% killing” value (AP1 bacteria [3]; AP1 washed and resuspended in buffer, no SIC present, 2 h 37° C.) was “approximately 0.4 μM”, the EC50 (AP1 bacteria [3]; read-out: concentration of LL-37 required to kill 50% of the bacteria, bacteria washed to remove SIC before addition of LL-37) was 0.2 µM and the “fold increase of concentration to kill 50% with secreted SIC versus washed bacteria” value (AP1 bacteria [4]; 11.1 μM compared to 0.2 μM) was “more than 50 times”. The EC50 (AP1 bacteria [4]; read-out: concentration of LL-37 required to kill 50% of the bacteria, AP1 at early logarithmic growth phase, SIC 4-5 μg/ml growth medium) was 11.1 µM, the “interaction with M1 protein (ELISA, FIG. 1B)” value (M1 protein) was “at background level” and the “interaction with 125I-labelled SIC (slot-binding, FIG. 1A)” value (protein SIC [5]) was “interacts”. For the same substance, the “affinity for SIC (ELISA, FIG. 1B)” value (protein SIC [6]) was “showed affinity”.
Substance “protein SIC purified from S. pyogenes strain AP1 (serotype M1)” has an efficiency in blocking LL-37 against blocking α-defensin, from inhibition curves (LL-37 (human)) of 10 times and a fold rise of the LL-37 concentration required to kill 50% of the bacteria, with secreted SIC against washed bacteria (LL-37 (human)) of 50 times.
